Source: US8735097B2, “Human antibiotic proteins” (Planton GmbH, priority 1999, dated 2014)
Where no end group is shown, it is not given here.

How the values were obtained:
E. coli [1] = assay: MIC, antimicrobial activity against E. coli; assay type: cell-based, Escherichia coli
Excerpt: (§1) The following microorganisms were used for the tests: • Escherichia coli (E. coli)—ATCC (American Type Culture Collection) No. 11303 • Pseudomonas aeruginosa—ATCC No. 15442 • Staphylococcus aureus (clinical isolates from the dermatological hospital of Kiel) • Staphylococcus epidermidis (clinical isolates from the dermatological hospital of Kiel) • Candida albicans (clinical isolates from the dermatological hospital of Kiel)
(§2) The microorganisms were cultivated on Trypticase-soy-broth (TSB) agar plates at 37° C. If they were not needed for a long time, they were stored at 4° C. For the tests, in each case a single colony of the corresponding microorganisms was inoculated in 40 ml of TSB medium and incubated overnight at 37° C. while being shaken (250 rpm). To quantify the microorganisms, the optical density of the overnight cultures was measured at 620 nm (OD620), and the colony number was determined by flattening out corresponding dilution stages.
(§3) To be able to assess the dose-dependent range of action of an antimicrobial or antibiotic protein, a liquid culture testing system was used (cf. Ganz et al., 1985). […]
(§4) These batches were incubated in a 96-hole plate (Becton Dickinson, Heidelberg) for 3 hours at 37° C. while being shaken lightly (150 rpm). […] After 24 to 36 hours of growth, the colonies were counted out.

Staph aureus = assay: MIC, antimicrobial activity against Staph aureus; assay type: cell-based, Staphylococcus aureus
Excerpt: as §1, §2, §3, §4

E. coli [2] = assay: Liquid culture test, LD90 by counting colony-forming units, E. coli; assay type: cell-based, Escherichia coli; settings: 3 hours at 37° C., 5·10^4 KBE/ml, 10 mmol sodium phosphate buffer pH 7.4 with 1% TSB
Protocol: (§5) To be able to assess the dose-dependent range of action of an antimicrobial or antibiotic protein, a liquid culture testing system was used (cf. Ganz et al., 1985).
(§6) About 10 μl of a 1×10^7/ml dilution of the corresponding microorganisms in sodium-phosphate buffer (cf. 3.1) was added to 80 μl of sodium-phosphate buffer together with 1.25% TSB medium (v/v). 10 μl of 0.01% acetic acid was added with the corresponding concentrations of the antimicrobial or antibiotic protein (100 μg/ml, 50 μg/ml, 25 μg/ml, 12.5 μg/ml, and 6.25 μg/ml).
(§7) These batches were incubated in a 96-hole plate (Becton Dickinson, Heidelberg) for 3 hours at 37° C. while being shaken lightly (150 rpm). After the incubation time, tenfold dilution series were made from 50 μl of each of the batches with sodium-phosphate buffer and flattened out (100 μl) in each case in 3 parallel lines on TSB-agar plates. After 24 to 36 hours of growth, the colonies were counted out.
(§8) SAP-3 was incubated at the indicated concentrations at 37° C. for 3 hours with 5·10^4 KBE/ml (KBE=colony-forming units) of E. coli and Staphylococcus aureus in 100 μl of 10 mmol of sodium phosphate buffer (pH=7.4) together with 1% TSB (TSB=trypticase-soy broth). The antimicrobial activity of SAP-3 was determined by counting out the KBE on the subsequent day. 100 μl of the respective batches in tenfold dilution stages was flattened out on TSB plates in advance. […]

Staphylococcus aureus [3] = assay: Liquid culture test, LD90 by counting colony-forming units, Staphylococcus aureus; assay type: cell-based; settings: 3 hours at 37° C., 10 mmol sodium phosphate buffer pH 7.4 with 1% TSB
Protocol: as §5, §6, §4
as §8, with “day.” for “day. 100 μl of the respective batches in tenfold dilution stages was flattened out on TSB plates in advance.”
SAP-2 was incubated at the indicated concentrations at 37° C. for 3 hours with 1·10^5 KBE/ml of the respective microorganisms in 100 μl of 10 mmol of sodium phosphate buffer (pH=7.4) together with 1% TSB. The antimicrobial activity of SAP-2 was determined by counting out the KBE on the subsequent day. […]

gram-positive bacteria = settings: cited from earlier work
gram-negative bacteria = settings: cited from earlier work
Pseudomonas aeruginosa [4] = settings: cited from earlier work
Klebsiella pneumoniae = settings: cited from earlier work
E. coli [5] = settings: cited from earlier work
Staphylococcus aureus [6] = settings: cited from earlier work
Candida albicans [7] = settings: cited from earlier work
human RNA = assay: RNase activity; assay type: biochemical; settings: 1.2 μg of SAP-2, one hour at 37° C.
Protocol: RNase activity: 1.2 μg of SAP-2 digested about 5 μg of human RNA in one hour at 37° C.

propionibacterium acnes = assay: Liquid culture test, LD90 by counting colony-forming units, propionibacterium acnes; assay type: cell-based; settings: 3 hours at 37° C., 1·10^5 KBE/ml, 10 mmol sodium phosphate buffer pH 7.4 with 1% TSB
Protocol: as §5, §6, §7
(§9) SAP-2 was incubated at the indicated concentrations at 37° C. for 3 hours with 1·10^5 KBE/ml of the respective microorganisms in 100 μl of 10 mmol of sodium phosphate buffer (pH=7.4) together with 1% TSB. The antimicrobial activity of SAP-2 was determined by counting out the KBE on the subsequent day. 100 μl of the respective batches was flattened out in tenfold dilution stages on TSB plates in advance. Then, the plates were incubated at 37° C. overnight.

Candida albicans [8] = assay: Liquid culture test, LD90 by counting colony-forming units, Candida albicans; assay type: cell-based; settings: 3 hours at 37° C., 1·10^5 KBE/ml, 10 mmol sodium phosphate buffer pH 7.4 with 1% TSB
Protocol: as §5, §6, §7, §9

Pseudomonas aeruginosa [9] = assay: Liquid culture test, LD90 by counting colony-forming units, Pseudomonas aeruginosa; assay type: cell-based; settings: 3 hours at 37° C., 1·10^5 KBE/ml, 10 mmol sodium phosphate buffer pH 7.4 with 1% TSB
Protocol: as §5, §6, §7, §9

Molecule: SAP-3: human antibiotic protein of about 6 kDa isolated from lesional psoriasis scales, SEQ ID NO: 2, to be renamed hBD-3 (GIINTLQKYYCRVRGGRCAVLSCLPKEEQIGKCSTRGRKCCRRKK; listed as Homo sapiens)
- MIC, antimicrobial activity against E. coli (E. coli [1]): <20 µg/mL
- MIC, antimicrobial activity against Staph aureus (Staph aureus): <100 µg/mL
- LD90 for E. coli (E. coli [2]): 2.5 to 5 µg/mL
- LD90 for Staphylococcus aureus (Staphylococcus aureus [3]; 5·10^4 KBE/ml): 2.5 to 5 µg/mL

Molecule: hBD-2: second β-defensin isolated in humans, 41 amino acids, inducible peptide (GIGDPVTCLKSGAICHPVFCPRRYKQIGTCGLPGTKCCKKP; ends and bridges not checked; cysteine pairing not given here; UniProt O15263 24-64, looked up)
- LD90 against gram-positive bacteria (gram-positive bacteria): exceeds 100 μg/ml
- LD90 against gram-negative bacteria (gram-negative bacteria): 10 µg/mL

B1: TAP: first known epithelial β-defensin, which protects the trachea of bovines, 64 amino acids (protein, UniProt P25068 1-64, looked up)
chain: MRLHHLLLALLFLVLSAWSGFTQGVGNPVSCVRNKGICVPIRCPGSMKQIGTCVGRAVKCCRKK
modifications: ends and bridges not checked
notes: first known epithelial β-defensin, which protects the trachea of bovines, 64 amino acids
- minimum inhibition concentration against Pseudomonas aeruginosa (Pseudomonas aeruginosa [4]): 12 to 50 µg/mL
- minimum inhibition concentration against Klebsiella pneumoniae (Klebsiella pneumoniae): 12 to 50 µg/mL
- minimum inhibition concentration against E. coli (E. coli [5]): 12 to 50 µg/mL
- minimum inhibition concentration against Staphylococcus aureus (Staphylococcus aureus [6]): 12 to 50 µg/mL
- action on Candida albicans (Candida albicans [7]): destroyed

B2: SAP-2: human antibiotic protein of about 20 kDa isolated from lesional psoriasis scales, SEQ ID NO: 1, to be renamed RNase 7 (protein, listed as Homo sapiens)
chain: KPKGMTSSQWFKIQHMQPSPQACNSAMKNINKHTKRCKDLNTFLHEPFSSVAATCQTPKIACKNGDKNCHQSHGPVSLTMCKLTSGKYPNCRYKEKRQNKSYVVACKPPQKKDSQQFHLVPVHLDRVL
- RNase activity: human RNA digested (human RNA): about 5 μg
- LD90 for propionibacterium acnes (propionibacterium acnes): 4 to 7.5 µg/mL
- MIC, antimicrobial activity against E. coli (E. coli [1]): < 50 µg/mL
- MIC, antimicrobial activity against Staph aureus (Staph aureus): < 100 µg/mL
- LD90 for Candida albicans (Candida albicans [8]): 15 to 30 µg/mL
- LD90 for Pseudomonas aeruginosa (Pseudomonas aeruginosa [9]): 7.5 to 15 µg/mL
- LD90 for Staphylococcus aureus (Staphylococcus aureus [3]; 1·10^5 KBE/ml): 7.5 to 15 µg/mL
